Data as given in paper PMC3141380, “Crystal structure of alkyl hydroperoxidase D like protein PA0269 from Pseudomonas aeruginosa: Homology of the AhpD-like structural family” (BMC Structural Biology, 2011).

Experiments:
[1] = molecular target: the molecule itself; assay: SEC; Superdex 200 26/60, 10 mM HEPES pH 7.5, 0.25 M NaCl, 0.5 mM TCEP; data not shown
[2] = molecular target: the molecule itself; assay: crystal structure; SeMet protein, space group P6(3)22, one molecule in the asymmetric unit; hexamer built by crystallographic symmetry; crystals from 0.1 M Tris pH 7.6, 0.2 M NaCl, phosphate, 20°C

B1: Alkyl hydroperoxidase D like protein PA0269 from Pseudomonas aeruginosa (natural protein, P. aeruginosa, UniProt Q9I6M1 1-145, looked up)
chain: MTTRLEWAKASPDAYAAMLGLEKALAKAGLERPLIELVYLRTSQINGCAYCVNMHANDARKAGETEQRLQALCVWQETPYFTPRERAALAWTEQLARLSQGALPHGLLDELREHFDDKEIAELTLAVSAINAWNRFGVGMGMQPE
modifications: selenomethionine (four Se-Met residues found in the structure, Se in partial occupancy)
notes: PA0269 (AhpD-like protein), Pseudomonas aeruginosa strain 633 (ATCC 17933D) genomic DNA, full length protein of 145 aa, cloned in pET15b; A native sample with and without the His tag was also made; also called P. aeruginosa AhpD; putative AhpD; source: E. coli BL21 (DE3), M9 selenomethionine media, purified (DE52, Ni-NTA, Superdex 200 gel filtration)
[1]
  stoichiometry N: 5.5
[2]
  stoichiometry N: 6
